According to US12410262B2, “Peptide conjugates of cytotoxins as therapeutics” (Cybrexa 2, Inc., priority 2019, dated 2025):
Like-named read-outs stand apart in the source and are kept apart here.

What was measured:
[1] = tested on: HCT116; test: cells; type: cell-based, human
Description: Cells were plated in 96 well black walled-clear bottom plates (Griener), DLD-1 WT cells at 2500 cells per well, FaDu, and HeLa cells at 5000 cells per well, and HCT116 at 3000 cells per well, in growth media containing 10% FBS. Cells were allowed to adhere at room temperature for 60 minutes before returning to a 37 C, 5% CO2 incubator. After 24 hours, media was removed and replaced with fresh growth media containing various drug concentrations. Each drug concentration was added in triplicate. Non-drug treated controls contained growth media only. Cells were returned to the incubator. Ninety-six hours after addition of drug, cells were fixed with 4% paraformaldehyde for 20 minutes and stained with Hoechst at 1 ug/mL. The plates were imaged on a Cytation 5 auto imager (BioTek) and cells were counted using CellProfiler (http://cellprofiler.org). The percent cell growth delay was calculated and data plotted using GraphPad Prism

[2] = Plasma stability studies; type: in vitro ADME; conditions: rat plasma, 100 μM conjugate, 37° C.
Description: A 20 mM stock of conjugate was prepared in 100% DMSO. The stocks were subsequently diluted in 100 mM Tris, pH 7.5 to yield an intermediate dilution of 500 μM and then diluted 1:5 directly into rat plasma to yield a final concentration of 100 μM of conjugate. Samples were mixed by inversion and incubated at 37° C. for up to 24 h. 50 μL samples were aliquoted into siliconized microfuge tubes at time 0, 4, and 24 h and immediately frozen at −80° C.
(§1) Samples were thawed and extracted as follows: 8 μL of 25% phosphoric acid followed by 117 μL of 100% Acetonitrile/0.1% TFA was added to each sample, mixed and centrifuged at 13000×G for 10 minutes. The supernatant was pipetted into 0.2 mL HPLC vials and placed on a Perkin Elmer Flexar HPLC autosampler. The following table summarizes HPLC conditions:
Data was analyzed by calculating the percentage reduction of compound (area of retention time peak of incubated conjugate/area of retention time peak of conjugate at time 0)×100.

[3] = Glutathione cleavage study; type: in vitro ADME; conditions: Tris buffer with 10 mM glutathione, Glutathione Challenge (10 mM), 100 μM conjugate, Tris pH 7.5, 37° C.
Description: A 20 mM stock of conjugate was prepared in 100% DMSO. The stocks were subsequently diluted in 100 mM Tris, pH 7.5, to yield an intermediate dilution of 500 μM followed by an additional dilution of 1:5 in 100 mM Tris, pH 7.5 to give a final concentration of 100 μM of conjugate. 100 mM glutathione was prepared immediately prior to use in H2O and diluted 1:10 in challenge samples for a final glutathione challenge concentration of 10 mM. Samples were mixed by inversion and incubated at 37° C. for up to 24 hrs. […]
as §1, with “100% acetonitrile/0.1%” for “100% Acetonitrile/0.1%”, “TFA were” for “TFA was”
Data was analyzed by calculating the percentage reduction of compound (area of retention time peak of […] conjugate/area of retention time peak of conjugate at time 0)×100.

SMILES: CC[C@@]1(O)C(=O)OCc2c1cc1n(c2=O)Cc2c-1nc1cc(F)c(C)c3c1c2[C@@H](NC(=O)O[C@@H]1CCCC[C@H]1SSC[C@H](NC(=O)[C@H](Cc1c[nH]c2ccccc12)NC(=O)[C@H](CC(C)C)NC(=O)[C@H](CC(C)C)NC(=O)[C@H](CC(=O)O)NC(=O)[C@H](CC(C)C)NC(=O)[C@H](CC(C)C)NC(=O)[C@H](CC(C)C)NC(=O)[C@@H](NC(=O)[C@H](CC(=O)O)NC(=O)[C@@H](NC(=O)[C@@H]1CCCN1C(=O)[C@H](Cc1ccccc1)NC(=O)[C@H](CC(C)C)NC(=O)[C@H](CC(C)C)NC(=O)[C@H](CC(=O)O)NC(=O)[C@H](CC(C)C)NC(=O)[C@H](Cc1ccc(O)cc1)NC(=O)[C@H](C)NC(=O)[C@H](CCCNC(=N)N)NC(=O)[C@H](Cc1c[nH]c2ccccc12)NC(=O)[C@@H]1CCCN1C(=O)[C@H](CC(N)=O)NC(=O)[C@H](CCC(N)=O)NC(=O)[C@H](CC(=O)O)NC(=O)[C@H](CC(=O)O)NC(=O)[C@H](C)N)[C@@H](C)O)[C@@H](C)O)C(=O)NCC(=O)O)CC3 [Compound 13]
- IC50 ([1]; 96 h): 21 nM

SMILES: CC[C@@]1(O)C(=O)OCc2c1cc1n(c2=O)Cc2c-1nc1cc(F)c(C)c3c1c2[C@@H](NC(=O)O[C@H]1Cc2ccccc2C[C@@H]1SSC[C@H](NC(=O)[C@H](Cc1c[nH]c2ccccc12)NC(=O)[C@H](CC(C)C)NC(=O)[C@H](CC(C)C)NC(=O)[C@H](CC(=O)O)NC(=O)[C@H](CC(C)C)NC(=O)[C@H](CC(C)C)NC(=O)[C@H](CC(C)C)NC(=O)[C@@H](NC(=O)[C@H](CC(=O)O)NC(=O)[C@@H](NC(=O)[C@@H]1CCCN1C(=O)[C@H](Cc1ccccc1)NC(=O)[C@H](CC(C)C)NC(=O)[C@H](CC(C)C)NC(=O)[C@H](CC(=O)O)NC(=O)[C@H](CC(C)C)NC(=O)[C@H](Cc1ccc(O)cc1)NC(=O)[C@H](C)NC(=O)[C@H](CCCNC(=N)N)NC(=O)[C@H](Cc1c[nH]c2ccccc12)NC(=O)[C@@H]1CCCN1C(=O)[C@H](CC(N)=O)NC(=O)[C@H](CCC(N)=O)NC(=O)[C@H](CC(=O)O)NC(=O)[C@H](CC(=O)O)NC(=O)[C@H](C)N)[C@@H](C)O)[C@@H](C)O)C(=O)NCC(=O)O)CC3 [Compound 19]
- IC50 ([1]; 96 h): 1.8 nM

SMILES: CC[C@@]1(O)C(=O)OCc2c1cc1n(c2=O)Cc2c-1nc1cc(F)c(C)c3c1c2[C@@H](NC(=O)O[C@H]1COC[C@@H]1SSC[C@H](NC(=O)[C@H](Cc1c[nH]c2ccccc12)NC(=O)[C@H](CC(C)C)NC(=O)[C@H](CC(C)C)NC(=O)[C@H](CC(=O)O)NC(=O)[C@H](CC(C)C)NC(=O)[C@H](CC(C)C)NC(=O)[C@H](CC(C)C)NC(=O)[C@@H](NC(=O)[C@H](CC(=O)O)NC(=O)[C@@H](NC(=O)[C@@H]1CCCN1C(=O)[C@H](Cc1ccccc1)NC(=O)[C@H](CC(C)C)NC(=O)[C@H](CC(C)C)NC(=O)[C@H](CC(=O)O)NC(=O)[C@H](CC(C)C)NC(=O)[C@H](Cc1ccc(O)cc1)NC(=O)[C@H](C)NC(=O)[C@H](CCCNC(=N)N)NC(=O)[C@H](Cc1c[nH]c2ccccc12)NC(=O)[C@@H]1CCCN1C(=O)[C@H](CC(N)=O)NC(=O)[C@H](CCC(N)=O)NC(=O)[C@H](CC(=O)O)NC(=O)[C@H](CC(=O)O)NC(=O)[C@H](C)N)[C@@H](C)O)[C@@H](C)O)C(=O)NCC(=O)O)CC3 [Compound 17]
- remaining at 4 h, 100 µM [2]: 107%
- remaining at 24 h, 100 µM [2]: 105%
- IC50 ([1]; 96 h): 0.7 nM
- remaining at 4 h, 100 µM [3]: 3.4%
- remaining at 24 h, 100 µM [3]: 1.7%

SMILES: CC[C@@]1(O)C(=O)OCc2c1cc1n(c2=O)Cc2c-1nc1cc(F)c(C)c3c1c2[C@@H](NC(=O)O[C@@H]1COC[C@H]1SSC[C@H](NC(=O)[C@H](Cc1c[nH]c2ccccc12)NC(=O)[C@H](CC(C)C)NC(=O)[C@H](CC(C)C)NC(=O)[C@H](CC(=O)O)NC(=O)[C@H](CC(C)C)NC(=O)[C@H](CC(C)C)NC(=O)[C@H](CC(C)C)NC(=O)[C@@H](NC(=O)[C@H](CC(=O)O)NC(=O)[C@@H](NC(=O)[C@@H]1CCCN1C(=O)[C@H](Cc1ccccc1)NC(=O)[C@H](CC(C)C)NC(=O)[C@H](CC(C)C)NC(=O)[C@H](CC(=O)O)NC(=O)[C@H](CC(C)C)NC(=O)[C@H](Cc1ccc(O)cc1)NC(=O)[C@H](C)NC(=O)[C@H](CCCNC(=N)N)NC(=O)[C@H](Cc1c[nH]c2ccccc12)NC(=O)[C@@H]1CCCN1C(=O)[C@H](CC(N)=O)NC(=O)[C@H](CCC(N)=O)NC(=O)[C@H](CC(=O)O)NC(=O)[C@H](CC(=O)O)NC(=O)[C@H](C)N)[C@@H](C)O)[C@@H](C)O)C(=O)NCC(=O)O)CC3 [Compound 16]
- remaining at 4 h, 100 µM [2]: 116%
- remaining at 24 h, 100 µM [2]: 106%
- IC50 ([1]; 96 h): 1.7 nM
- remaining at 4 h, 100 µM [3]: 3.4%
- remaining at 24 h, 100 µM [3]: 2%

SMILES: CC[C@@]1(O)C(=O)OCc2c1cc1n(c2=O)Cc2c-1nc1cc(F)c(C)c3c1c2[C@@H](NC(=O)O[C@H]1Cc2ccccc2C[C@@H]1SSC[C@H](NC(=O)[C@H](Cc1c[nH]c2ccccc12)NC(=O)[C@H](CC(C)C)NC(=O)[C@H](CC(C)C)NC(=O)[C@H](CC(=O)O)NC(=O)[C@H](CC(C)C)NC(=O)[C@H](CC(C)C)NC(=O)[C@H](CC(C)C)NC(=O)[C@@H](NC(=O)[C@H](CC(=O)O)NC(=O)[C@@H](NC(=O)[C@@H]1CCCN1C(=O)[C@H](Cc1ccccc1)NC(=O)[C@H](CC(C)C)NC(=O)[C@H](CC(C)C)NC(=O)[C@H](CC(=O)O)NC(=O)[C@H](CC(C)C)NC(=O)[C@H](Cc1ccc(O)cc1)NC(=O)[C@H](C)NC(=O)[C@H](CCCNC(=N)N)NC(=O)[C@H](Cc1c[nH]c2ccccc12)NC(=O)[C@@H]1CCCN1C(=O)[C@H](CC(N)=O)NC(=O)[C@H](CCC(N)=O)NC(=O)[C@H](CC(=O)O)NC(=O)[C@H](CC(=O)O)NC(=O)[C@H](C)N)[C@@H](C)O)[C@@H](C)O)C(=O)NCC(=O)O)CC3 [Compound 18]
- remaining at 4 h, 100 µM [2]: 104%
- remaining at 24 h, 100 µM [2]: 93%
- IC50 ([1]; 96 h): 2.9 nM
- remaining at 4 h, 100 µM [3]: 60.1%
- remaining at 24 h, 100 µM [3]: 13%

SMILES: CC[C@@]1(O)C(=O)OCc2c1cc1n(c2=O)Cc2c-1nc1cc(F)c(C)c3c1c2[C@@H](NC(=O)OC[C@H](SSC[C@H](NC(=O)[C@H](Cc1c[nH]c2ccccc12)NC(=O)[C@H](CC(C)C)NC(=O)[C@H](CC(C)C)NC(=O)[C@H](CC(=O)O)NC(=O)[C@H](CC(C)C)NC(=O)[C@H](CC(C)C)NC(=O)[C@H](CC(C)C)NC(=O)[C@@H](NC(=O)[C@H](CC(=O)O)NC(=O)[C@@H](NC(=O)[C@@H]1CCCN1C(=O)[C@H](Cc1ccccc1)NC(=O)[C@H](CC(C)C)NC(=O)[C@H](CC(C)C)NC(=O)[C@H](CC(=O)O)NC(=O)[C@H](CC(C)C)NC(=O)[C@H](Cc1ccc(O)cc1)NC(=O)[C@H](C)NC(=O)[C@H](CCCNC(=N)N)NC(=O)[C@H](Cc1c[nH]c2ccccc12)NC(=O)[C@@H]1CCCN1C(=O)[C@H](CC(N)=O)NC(=O)[C@H](CCC(N)=O)NC(=O)[C@H](CC(=O)O)NC(=O)[C@H](CC(=O)O)NC(=O)[C@H](C)N)[C@@H](C)O)[C@@H](C)O)C(=O)NCC(=O)O)C(C)C)CC3 [Compound 28]
- remaining at 4 h, 100 µM [2]: 106%
- remaining at 24 h, 100 µM [2]: 106%
- IC50 ([1]; 96 h): 1.1 nM
- remaining at 4 h, 100 µM [3]: 40.5%
- remaining at 24 h, 100 µM [3]: 0%

SMILES: CC[C@@]1(O)C(=O)OCc2c1cc1n(c2=O)Cc2c-1nc1cc(F)c(C)c3c1c2[C@@H](NC(=O)O[C@H](C)[C@@H](C)SSC[C@H](NC(=O)[C@H](Cc1c[nH]c2ccccc12)NC(=O)[C@H](CC(C)C)NC(=O)[C@H](CC(C)C)NC(=O)[C@H](CC(=O)O)NC(=O)[C@H](CC(C)C)NC(=O)[C@H](CC(C)C)NC(=O)[C@H](CC(C)C)NC(=O)[C@@H](NC(=O)[C@H](CC(=O)O)NC(=O)[C@@H](NC(=O)[C@@H]1CCCN1C(=O)[C@H](Cc1ccccc1)NC(=O)[C@H](CC(C)C)NC(=O)[C@H](CC(C)C)NC(=O)[C@H](CC(=O)O)NC(=O)[C@H](CC(C)C)NC(=O)[C@H](Cc1ccc(O)cc1)NC(=O)[C@H](C)NC(=O)[C@H](CCCNC(=N)N)NC(=O)[C@H](Cc1c[nH]c2ccccc12)NC(=O)[C@@H]1CCCN1C(=O)[C@H](CC(N)=O)NC(=O)[C@H](CCC(N)=O)NC(=O)[C@H](CC(=O)O)NC(=O)[C@H](CC(=O)O)NC(=O)[C@H](C)N)[C@@H](C)O)[C@@H](C)O)C(=O)NCC(=O)O)CC3 [Compound 12]
- IC50 ([1]; HCT-116 cells, 96 h after addition of drug, second table (Compounds 11-29), read-out: HCT-116 (IC50)): 2.6 nM
